*1 amine or outer side, *2 acyl side, *3 side chain or, on linkers, in order; H or OH if unused. Where no end group is shown, it is not given here. Side-chain parts run from the residue outwards. [ ]: non-standard residue; d: D form. The star is where a group is joined. Decanoyl(10-(4-HOOC-PhO)) = O=C(O)c1ccc(OCCCCCCCCCC(=O)*)cc1; C16 diacid = O=C(O)CCCCCCCCCCCCCCC(=O)*; γGlu = O=C(O)[C@H](CCC(=O)[*:2])N[*:1]; 13‑carboxytridecanoyl = C14 diacid; AEEA = NCCOCCOCC(=O)O; Aib = CC(C)(N)C(=O)O
B1: GLP-1 derivative of Example 103: [Aib8,Lys18,Arg34]-GLP-1-(7-37)-peptide (peptide)
peptide: HXEGTFTSDVSKYLEGQAAKEFIAWLVRGRG
modifications: Aib8; Lys18 and Lys26 each Nε-acylated with 13-carboxytridecanoyl-gGlu-gGlu-OEG-OEG

molecular target: T1, human GLP-1 receptor (human, UniProt P43220 24-463); assay: SPA, displacement of 125I-GLP-1(7-36)NH2, 0.005% HSA
T1 construct: whole, on cells; Used as purified membranes of the transfected hamster cells, not whole cells; also called hGLP-1

| IC50 | Binder |
| --- | --- |
| < 1000 nM | H[Aib]EGTFTSDVSK([AEEA-AEEA-AEEA-AEEA-AEEA-AEEA-γGlu-13‑carboxytridecanoyl])YLEEQAVREFIAK([AEEA-AEEA-AEEA-AEEA-AEEA-AEEA-γGlu-13‑carboxytridecanoyl])LVRGRG [GLP-1 derivative of Example 131: [Aib8,Lys18,Glu22,Val25,Arg26,Lys31,Arg34]-GLP-1-(7-37)-peptide] |
| < 1000 nM | H[Aib]EGTFTSDVSK([AEEA-AEEA-AEEA-AEEA-γGlu-13‑carboxytridecanoyl])YLEEQAVREFIAK([AEEA-AEEA-AEEA-AEEA-γGlu-13‑carboxytridecanoyl])LVRGRG [GLP-1 derivative of Example 130: [Aib8,Lys18,Glu22,Val25,Arg26,Lys31,Arg34]-GLP-1-(7-37)-peptide] |
| < 1000 nM | H[Aib]EGTFTSDVSK([AEEA-AEEA-γGlu-γGlu-C16 diacid])YLEEQAVREFIAK([AEEA-AEEA-γGlu-γGlu-C16 diacid])LVRGRG [GLP-1 derivative of Example 134: [Aib8,Lys18,Glu22,Val25,Arg26,Lys31,Arg34]-GLP-1-(7-37)-peptide] |
| < 1000 nM | H[Aib]EGTFTSDVSKYLEEQAVREFIAKLVRGRG (not fully specified (residues 12, 25)) [GLP-1 derivative of Example 137: [Aib8,Lys18,Glu22,Val25,Arg26,Lys31,Arg34]-GLP-1-(7-37)-peptide] |
| < 1000 nM | H[Aib]EGTFTSDVSK([AEEA-AEEA-γGlu-13‑carboxytridecanoyl])YLEEQAAK([AEEA-AEEA-γGlu-13‑carboxytridecanoyl])EFIAWLVRGRG [GLP-1 derivative of Example 100: [Aib8,Lys18,Glu22,Arg34]-GLP-1-(7-37)-peptide] |
| < 1000 nM | H[Aib]EGTFTSDVSK([AEEA-AEEA-γGlu-13‑carboxytridecanoyl])YLEGQAAK([AEEA-AEEA-γGlu-13‑carboxytridecanoyl])EFIAWLVQGRG [GLP-1 derivative of Example 141: [Aib8,Lys18,Gln34]-GLP-1-(7-37)-peptide] |
| < 1000 nM | H[Aib]EGTFTSDVSK([AEEA-γGlu-AEEA-13‑carboxytridecanoyl])YLEEQAVREFIAK([AEEA-γGlu-AEEA-13‑carboxytridecanoyl])LVRGRG [GLP-1 derivative of Example 145: [Aib8,Lys18,Glu22,Val25,Arg26,Lys31,Arg34]-GLP-1-(7-37)-peptide] |
| < 1000 nM | H[Aib]EGTFTSDVSK([AEEA-AEEA-γGlu-Decanoyl(10-(4-HOOC-PhO))])YLEGQAAK([AEEA-AEEA-γGlu-Decanoyl(10-(4-HOOC-PhO))])EFIAWLVHGRG [GLP-1 derivative of Example 142: [Aib8,Lys18,His34]-GLP-1-(7-37)-peptide] |
| < 1000 nM | B1 |
| < 1000 nM | H[Aib]EGTFTSDVSK([AEEA-AEEA-AEEA-AEEA-AEEA-AEEA-γGlu-13‑carboxytridecanoyl])YLEEQAVREFIAK([AEEA-AEEA-AEEA-AEEA-AEEA-AEEA-γGlu-13‑carboxytridecanoyl])LVRGRG [GLP-1 derivative of Example 144: [Aib8,Lys18,Glu22,Val25,Arg26,Lys31,Arg34]-GLP-1-(7-37)-peptide] |

molecular target: T1, human GLP-1 receptor; assay: SPA, 2.0% vs 0.005% HSA

| ratio IC50 high HSA/IC50 low HSA | Binder |
| --- | --- |
| > 1 | H[Aib]EGTFTSDVSK([AEEA-AEEA-AEEA-AEEA-AEEA-AEEA-γGlu-13‑carboxytridecanoyl])YLEEQAVREFIAK([AEEA-AEEA-AEEA-AEEA-AEEA-AEEA-γGlu-13‑carboxytridecanoyl])LVRGRG [GLP-1 derivative of Example 131: [Aib8,Lys18,Glu22,Val25,Arg26,Lys31,Arg34]-GLP-1-(7-37)-peptide] |
| > 1 | H[Aib]EGTFTSDVSK([AEEA-AEEA-AEEA-AEEA-γGlu-13‑carboxytridecanoyl])YLEEQAVREFIAK([AEEA-AEEA-AEEA-AEEA-γGlu-13‑carboxytridecanoyl])LVRGRG [GLP-1 derivative of Example 130: [Aib8,Lys18,Glu22,Val25,Arg26,Lys31,Arg34]-GLP-1-(7-37)-peptide] |
| > 1 | H[Aib]EGTFTSDVSK([AEEA-AEEA-γGlu-γGlu-C16 diacid])YLEEQAVREFIAK([AEEA-AEEA-γGlu-γGlu-C16 diacid])LVRGRG [GLP-1 derivative of Example 134: [Aib8,Lys18,Glu22,Val25,Arg26,Lys31,Arg34]-GLP-1-(7-37)-peptide] |
| > 1 | H[Aib]EGTFTSDVSKYLEEQAVREFIAKLVRGRG (not fully specified (residues 12, 25)) [GLP-1 derivative of Example 137: [Aib8,Lys18,Glu22,Val25,Arg26,Lys31,Arg34]-GLP-1-(7-37)-peptide] |
| > 1 | H[Aib]EGTFTSDVSK([AEEA-AEEA-γGlu-13‑carboxytridecanoyl])YLEEQAAK([AEEA-AEEA-γGlu-13‑carboxytridecanoyl])EFIAWLVRGRG [GLP-1 derivative of Example 100: [Aib8,Lys18,Glu22,Arg34]-GLP-1-(7-37)-peptide] |
| > 1 | H[Aib]EGTFTSDVSK([AEEA-AEEA-γGlu-13‑carboxytridecanoyl])YLEGQAAK([AEEA-AEEA-γGlu-13‑carboxytridecanoyl])EFIAWLVQGRG [GLP-1 derivative of Example 141: [Aib8,Lys18,Gln34]-GLP-1-(7-37)-peptide] |
| > 1 | H[Aib]EGTFTSDVSK([AEEA-γGlu-AEEA-13‑carboxytridecanoyl])YLEEQAVREFIAK([AEEA-γGlu-AEEA-13‑carboxytridecanoyl])LVRGRG [GLP-1 derivative of Example 145: [Aib8,Lys18,Glu22,Val25,Arg26,Lys31,Arg34]-GLP-1-(7-37)-peptide] |
| > 1 | H[Aib]EGTFTSDVSK([AEEA-AEEA-γGlu-Decanoyl(10-(4-HOOC-PhO))])YLEGQAAK([AEEA-AEEA-γGlu-Decanoyl(10-(4-HOOC-PhO))])EFIAWLVHGRG [GLP-1 derivative of Example 142: [Aib8,Lys18,His34]-GLP-1-(7-37)-peptide] |
| > 1 | B1 |
| > 1 | H[Aib]EGTFTSDVSK([AEEA-AEEA-AEEA-AEEA-AEEA-AEEA-γGlu-13‑carboxytridecanoyl])YLEEQAVREFIAK([AEEA-AEEA-AEEA-AEEA-AEEA-AEEA-γGlu-13‑carboxytridecanoyl])LVRGRG [GLP-1 derivative of Example 144: [Aib8,Lys18,Glu22,Val25,Arg26,Lys31,Arg34]-GLP-1-(7-37)-peptide] |

Reference: patent US9708383 (Novo Nordisk, dated 2017)
